Data on 9 molecules can be found in publication PMC11019746 (ACS Pharmacology & Translational Science, 2024).

Where two headings read alike, the source gives them in different places. Where no end group is shown, it is not given here.

The target of data set [1] is T1, hY4R (Homo sapiens, UniProt P50391). Also on record: expressed in transfected cells; host or cells: CHO (co-expressing Gqi5 and mitochondrially targeted aequorin). To be noted: cited from earlier work.
Data set [2] addresses T1, hY4R. Briefly: Y4R Ca2+ aequorin assay (CHO-hY4R-Gqi5-mtAEQ cells). The settings on record: for EC50: CHO-hY4R-Gqi5-mtAEQ cells, agonist mode, read-out: Ca2+-aequorin pEC50 ± SEM (converted); for Emax: read-out: Ca2+-aequorin Emax ± SEM. It is filed as cell-based. Also on record: expressed in transfected cells; host or cells: CHO (co-expressing Gqi5 and mitochondrially targeted aequorin). Here is the method:
The assay was performed with live CHO-hY4R-Gqi5-mtAEQ cells as previously described (used buffer: buffer III). Measurements were carried out on a Tecan Infinite Lumi plate reader. Data analysis was performed as reported using GraphPad Prism 5 for the calculation of the area under the curve. […] Efficacies Emax correspond to the upper plateaus of the normalized concentration–response curves.

In a further data set the target is Y4R (Homo sapiens, UniProt P50391). In words: Y4R miniGsi recruitment assay (HEK293T-NlucN-mGsi/Y4R-NlucC cells). Note: relative to 1 µM hPP (100%). It is filed as cell-based. The arrangement: expressed in transfected cells; host or cells: HEK293T. To be noted: read-out: miniGsi recruitment Emax ± SEM. Here is the method:
Furimazine was used as nanoluciferase substrate. The original stock was diluted 1:1000 in L15-HEPES to obtain the feed solution for the assay. Data analysis was performed based on the areas under the curves (time window: 45 min starting with the agonist addition) using GraphPad Prism 5. […] Efficacies Emax correspond to the upper plateaus of the normalized concentration–response curves.

For another data set, the target named is T2, hY1R (Homo sapiens, UniProt P25929).
T2 construct: host or cells: SK-N-MC neuroblastoma cells
T2 sequence (P25929 1-384): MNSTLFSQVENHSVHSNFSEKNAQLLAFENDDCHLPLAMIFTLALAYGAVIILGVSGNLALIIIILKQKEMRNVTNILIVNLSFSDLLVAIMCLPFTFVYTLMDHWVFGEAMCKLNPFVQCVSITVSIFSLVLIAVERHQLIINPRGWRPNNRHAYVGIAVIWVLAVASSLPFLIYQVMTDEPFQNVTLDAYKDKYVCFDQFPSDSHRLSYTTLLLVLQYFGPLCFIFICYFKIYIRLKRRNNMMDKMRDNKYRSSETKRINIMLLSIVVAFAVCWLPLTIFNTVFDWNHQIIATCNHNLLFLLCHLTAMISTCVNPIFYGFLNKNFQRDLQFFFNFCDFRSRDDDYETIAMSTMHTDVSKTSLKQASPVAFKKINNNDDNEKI
Briefly: Y1R radioligand competition binding, whole SK-N-MC cells, [3H]UR-MK299. The settings on record: SK-N-MC neuroblastoma cells, [3H]UR-MK299 c = […]; read-out: pKi ± SEM hY1R (converted). Here is the method:
(§1) All radioligand binding assays were performed at intact Y receptor expressing cells at 23 ± 2 °C.
Competition binding assays at Y1R-expressing SK-N-MC neuroblastoma cells were performed as previously described using [^3H]UR-MK299 as radioligand (concentration: 0.15 nM).[33] […] (logarithmic form in the case of pKi values).

Another data set addresses T3, hY5R (Homo sapiens, UniProt Q15761).
T3 construct: expressed in transfected cells; host or cells: HEC-1B (human endometrial cancer)
T3 sequence (Q15761 1-445): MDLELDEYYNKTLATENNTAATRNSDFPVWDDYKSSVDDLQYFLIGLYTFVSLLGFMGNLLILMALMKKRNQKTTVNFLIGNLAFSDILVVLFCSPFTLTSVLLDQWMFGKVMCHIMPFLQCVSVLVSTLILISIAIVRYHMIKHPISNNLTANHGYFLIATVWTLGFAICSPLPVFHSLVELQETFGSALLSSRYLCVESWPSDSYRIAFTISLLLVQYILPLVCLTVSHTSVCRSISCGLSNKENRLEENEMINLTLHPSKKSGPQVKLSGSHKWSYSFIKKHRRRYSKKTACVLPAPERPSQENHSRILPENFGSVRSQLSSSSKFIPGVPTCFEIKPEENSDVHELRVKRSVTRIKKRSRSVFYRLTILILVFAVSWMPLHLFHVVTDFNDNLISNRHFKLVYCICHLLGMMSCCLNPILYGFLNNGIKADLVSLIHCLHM
In words: Y5R radioligand competition binding, whole HEC-1B-hY5R cells, [3H]propionyl-pNPY. The settings on record: [3H]propionyl-pNPY c = 5 nM. As for the experimental part:
as §1
(logarithmic form in the case of pKi values).

For the next data set, the target named is T4, hY2R (Homo sapiens, UniProt P49146).
T4 construct: host or cells: CHO
T4 sequence (P49146 1-381): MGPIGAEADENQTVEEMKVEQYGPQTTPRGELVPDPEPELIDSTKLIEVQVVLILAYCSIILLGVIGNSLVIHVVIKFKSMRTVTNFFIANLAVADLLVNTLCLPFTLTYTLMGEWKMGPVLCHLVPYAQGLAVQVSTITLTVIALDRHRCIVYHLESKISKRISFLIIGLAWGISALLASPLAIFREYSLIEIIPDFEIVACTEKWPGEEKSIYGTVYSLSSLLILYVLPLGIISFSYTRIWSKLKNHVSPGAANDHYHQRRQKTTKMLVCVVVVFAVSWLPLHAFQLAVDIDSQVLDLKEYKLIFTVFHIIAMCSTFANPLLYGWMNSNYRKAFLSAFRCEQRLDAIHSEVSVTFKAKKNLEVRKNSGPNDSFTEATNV
In words: Y2R radioligand competition binding, whole CHO-hY2R cells, [3H]propionyl-pNPY. The settings on record: read-out: pKi ± SEM hY2R (converted). As for the experimental part:
as §1

A short description of data set [3]: Chemical stability in PBS pH 7.4. It is filed as physicochemical. Here is the method:
The chemical stability of the fluorescent ligands 16, 17, and 18 was investigated in PBS (adjusted to pH 7.4) at 22 °C. […] After time periods of 0, 6, and 48 h, an aliquot (25 μL) was withdrawn and added to 25 μL of acetonitrile/0.04% aq. TFA 1:9 v/v to obtain a peptide solution with a concentration of 50 μM. 20 μL of this solution were subjected to analytical RP-HPLC analysis using the same system and conditions as described under Analytical HPLC, but applying a different linear gradient: 0–14 min: A/B 90:10–45:55, 14–15 min: 45:55–5:95, 15–19 min: 5:95 (isocratic). A 1:1 mixture of PBS and acetonitrile/0.04% aq. TFA 1:9 v/v (20 μL) was analyzed to obtain the blank chromatogram.

Data set [4] addresses human neuropeptide Y Y5 receptor (human) (UniProt Q15761). In words: radioligand binding; competition with [^3H]propionyl-pNPY (5 nM) at intact HEC-1B-hY5R cells, 23 ± 2 °C, buffer II (150 mM NaCl).
In data set [5] the target is human neuropeptide Y Y1 receptor (human) (UniProt P25929). Briefly: radioligand binding; competition with [^3H]UR-MK299 ([…]) at intact SK-N-MC cells, 23 ± 2 °C, buffer II (150 mM NaCl).
In data set [6] the target is T5, human neuropeptide Y Y4 receptor (wild-type, CHO-hY4R-Gqi5-mtAEQ cells) (human, UniProt P50391 1-375).
T5 construct: The cells also express Gqi5 and mitochondrially targeted aequorin; also called wild-type Y4R
Briefly: flow cytometry on cells; association (0.7 nM 16, 1 nM 17, 0.5 nM 18) and dissociation (started with excess hPP and 5) at CHO-hY4R-Gqi5-mtAEQ cells, DPBS (137 mM Na^+), 22 ± 2 °C; monophasic and biphasic fits; Kd(kin) = koff/kon. The settings on record: one partner purified.

In data set [7] the target is T6, human neuropeptide Y Y2 receptor (human, UniProt P49146 1-381).
T6 construct: also called hY2R; source: CHO-hY2R cells (from PerkinElmer), intact cells
T6 sequence (looked up): T4 sequence (P49146 1-381)
Briefly: radioligand binding; competition with [^3H]propionyl-pNPY (0.5 nM) at intact CHO-hY2R cells, 23 ± 2 °C, buffer I (sodium-free). The settings on record: one partner purified.

Data set [8] addresses T5, human neuropeptide Y Y4 receptor …. Briefly: cell-based or functional assay.

For “1: Sulfo-Cy5-labeled [K^4,Nle^17,30]hPP, reported Y4R fluorescent ligand [Compound 1]”, in the data set with hY4R [1], the equilibrium dissociation constant (Kd) is 11 nM.

Regarding “2: 5-TAMRA-labeled [K^18,Nle^17,30]hPP, reported Y4R fluorescent ligand [Compound 2]”, the dissociation constant Kd in the data set with hY4R [1] was 26 nM.

`C#CCCCCNC(=O)N=C(N)NCCC[C@@H]1NC(=O)CCC(=O)NCCCCNC(=O)N=C(N)NCCC[C@@H](C(=O)N[C@@H](CC(C)C)C(=O)N[C@@H](CCCNC(=N)N)C(=O)N[C@@H](Cc2ccc(O)cc2)C(N)=O)NC(=O)[C@H](Cc2ccc(O)cc2)NC1=O` [Compound 11, (9S,12S,15S,E)-4-Amino-N-{(S)-1-[((S)-1-{[(S)-1-amino-3-(4-hydroxyphenyl)-1-oxopropan-2-yl]amino}-5-guanidino-1-oxopentan-2-yl)amino]-4-methyl-1-oxopentan-2-yl}-15-{3-[(E)-2-(hex-5-yn-1-ylcarbamoyl)guanidino]propyl}-12-(4-hydroxybenzyl)-2,11,14,17,20-pentaoxo-1,3,5,10,13,16,21-heptaazacyclopentacos-3-ene-9-carboxamide Tris(hydrotrifluoroacetate)]: at hY4R [2], the EC50 was 97.7 nM. Also, the Emax on hY4R [2] was found to be 56 ± 3%; on Y4R, 62 ± 1%. In addition, the Ki was more than 10000 nM on hY1R, more than 3000 nM on hY5R (read-out: Ki hY5R (converted)), more than 3160 nM on hY5R (read-out: pKi ± SEM hY5R (converted)) and more than 10000 nM at hY2R.

In the case of `Cc1cc(/C=C/c2cc3c4c(c2)CCCN4CCC3)cc(C)[n+]1CCCC(=O)N[C@@H]1CC(=O)N[C@@H](CCCNC(=N)N)C(=O)N[C@@H](Cc2ccc(O)cc2)C(=O)N[C@H](C(=O)N[C@@H](CC(C)C)C(=O)N[C@@H](CCCNC(=N)N)C(=O)N[C@@H](Cc2ccc(O)cc2)C(N)=O)CCCNC(N)=NC(=O)NCCCCNC1=O` [Compound 18], the “time with marginal degradation” value in data set [3] (PBS pH 7.4 (10% DMSO), room temperature) is listed as not below 6 h. Besides, in data set [3] (PBS pH 7.4, room temperature, 48 h, 100 μM), the chemical stability result was “slow decomposition”. Besides, the EC50 on hY4R [2] was 50.1 nM. The Emax on hY4R [2] was determined as 61 ± 5%; at Y4R, 44 ± 2%. For the same molecule, the values for the Ki at hY1R, at hY5R (read-out: Ki hY5R (converted)) and at hY2R were more than 1000 nM, 840 nM and more than 1000 nM, respectively.

On to “Sulfo-Cy5-[K^4]hPP: Sulfo-Cy5-labeled [K^4]hPP, reported fluorescent Y4R ligand (APLKPVYPGDNATPEQMAQYAADLRRYINMLTRPRY; not fully specified)”, for which, in the data set with hY4R [1], the Kd is 5.6 nM.

B1: fluorescent ligand 17 (Sulfo-Cy5-labeled cyclic hexapeptide) (peptide)
peptide: RYRLRY-NH2
modifications: also: Sulfo-Cy5 (S0223) conjugated to the amine of the cyclic precursor peptide 6, N^ω-carbamoylated arginine in the ring, position not given here
notes: peptide part as in m6; structure drawn in Scheme 2; source: synthetic peptide: from precursor peptide 6 and the succinimidyl ester 13 (S0586) of Sulfo-Cy5 (S0223), preparative HPLC
In turn, B1 came in with a negative-log Ki (pKi) in data set [4] of less than 6. In data set [5], this molecule registered a pKi of less than 6. For the same molecule, in data set [6], the “kobs(bi,fast)” value came out at 1.89 min⁻¹, the “kobs(bi,slow)” value was 0.071 min⁻¹ and the “kobs(mono)” value is 0.15 min⁻¹. The molecule further had a pKi in data set [7] of less than 6.

B2: fluorescent ligand 18 (Py-1-labeled cyclic hexapeptide) (peptide)
peptide: RYRLRY-NH2
modifications: also: Py-1 cyanine dye on the amine of a carbamoylated Arg in the ring, position not given here, cyclic, ring closure not given here
notes: peptide part as in m6; structure drawn in Scheme 2; source: synthetic peptide: from precursor peptide 6 and the pyrylium dye Py-1 (14), preparative HPLC
Consider B2, for which the negative-log Ki (pKi) in data set [4] stood at 6.08. Further, the pKi in data set [5] was less than 6. Besides, in data set [6], the “kobs(bi,fast)” value was 0.7 min⁻¹, the “kobs(bi,slow)” value was 0.034 min⁻¹ and the “kobs(mono)” value came out at 0.1 min⁻¹. The molecule also returned a negative-log Ki (pKi) in data set [7] of less than 6.

B3: fluorescent ligand 16 (Cy3B-labeled cyclic hexapeptide) (peptide)
peptide: RYRLRY-NH2
modifications: not fully specified (bridges); also: Cy3B conjugated to the amine of the cyclic precursor peptide 6, N^ω-carbamoylated arginine in the ring, position not given here
notes: structure drawn in Scheme 2; source: synthetic peptide: from precursor peptide 6 and Cy3B succinimidyl ester (12), preparative HPLC
B3 registered a pKi in [4] of 6.32. In addition, the pKi in [5] is 6.91. In data set [6], the “kobs(bi,fast)” value amounted to 1 min⁻¹, the “kobs(bi,slow)” value came to 0.048 min⁻¹ and the “kobs(mono)” value amounted to 0.18 min⁻¹. The pKi in data set [7] is less than 6.

B4: fluorescent ligand 19 (Py-5-labeled cyclic hexapeptide) (peptide)
peptide: RYRLRY
modifications: not fully specified; as 11; the alkyne of the carbamoylated arginine in position 1 joined by click chemistry (triazole) to the azido-functionalized pyridinium-type cyanine dye 15 (from Py-5); C-terminal amide
notes: peptide chain as in 11, whose linear precursor 10 is printed in three-letter code at h-0020; 19 is made from 11 and dye 15; source: synthetic peptide: from 11 and the azido-functionalized dye 15 by copper(I)-catalyzed click reaction, preparative HPLC
Regarding B4, in [8], the “EC50, Ca^2+-aequorin assay (CHO-hY4R-Gqi5-mtAEQ cells)” value came out at 58 nM. In addition, the negative-log Ki (pKi) in data set [4], in [5] and in data set [7] was less than 6 throughout.
